In article PMC9038204 (PLoS Biology, 2022):

B1: GST-mSNX1(1-139) (domain or fragment, mouse, UniProt Q9WV80 1-139, looked up)
chain: MASGGGGCSASERLPPPFPGMDPESEGAAGASEPEAGDSDTEGEDIFTGAAAATKPQSPKKTTSLFPIKNGSKENGIHEDQDQEPQDLFADATVELSLDSTQNNQKTMPGKTLTSHSPQEATNSPKPQPSYEELEEEEQ
notes: mouse SNX1 residues 1 to 139; vector pGEX4T-2, thrombin-cleavable GST; eluted with glutathione and named GST-mSNX1(1-139) in the ITC; also called amino-terminal extension of mouse SNX1; source: E. coli BL21 CodonPlus (DE3), purified (glutathione Sepharose, SEC); not shown: GST, N-terminal, kept
B2: human SNX1 peptide, residues 75-92 (second aDLF motif) (peptide)
peptide: NGIHEEQDQEPQDLFADA
notes: sorting nexin-1 (SNX1), human, residues 75 to 92; also called hSNX1 75-92; SNX1_(75-92); source: synthetic peptide (Genscript)
B3: human SNX1 peptide, residues 35-51 (first aDLF motif) (peptide)
peptide: EAGDSDTEGEDIFTGAA
notes: sorting nexin-1 (SNX1), human, residues 35 to 51; also called hSNX1 35-51; SNX1_(35-51); source: synthetic peptide (Genscript)
B4: SNX2_(62-82) peptide (peptide)
peptide: TEVVLDDDREDLFAEATEEVS
notes: human SNX2 residues 62 to 82; also called second aDLF motif of SNX2; source: synthetic peptide (Genscript)
B5: SNX2_(16-33) peptide (peptide)
peptide: TDFEDLEDGEDLFTSTVS
notes: human SNX2 residues 16 to 33; also called first aDLF motif of SNX2; source: synthetic peptide (Genscript)
B6: SNX1_(35-51) peptide (peptide)
peptide: EAGDSDTEGEDIFTGAA
notes: human SNX1 residues 35 to 51; also called first aDLF motif of human SNX1; source: synthetic peptide (Genscript)
B7: human SNX2 peptide, residues 62-82 (second aDLF motif) (peptide)
peptide: TEVVLDDDREDLFAEATEEVS
notes: sorting nexin-2 (SNX2), human, residues 62 to 82; also called hSNX2 62-82; SNX2_(62-82); source: synthetic peptide (Genscript)
B8: SNX1_(75-92) peptide (peptide)
peptide: NGIHEEQDQEPQDLFADA
notes: human SNX1 residues 75 to 92; also called second aDLF motif of human SNX1; source: synthetic peptide (Genscript)
B9: isolated FERM domain of human SNX27 (domain or fragment, UniProt Q96L92 269-531, looked up)
chain: YNGVSDVELRVALPDGTTVTVRVKKNSTTDQVYQAIAAKVGMDSTTVNYFALFEVISHSFVRKLAPNEFPHKLYIQNYTSAVPGTCLTIRKWLFTTEEEILLNDNDLAVTYFFHQAVDDVKKGYIKAEEKSYQLQKLYEQRKMVMYLNMLRTCEGYNEIIFPHCACDSRRKGHVITAISITHFKLHACTEEGQLENQVIAFEWDEMQRWDTDEEGMAFCFEYARGEKKPRWVKIFTPYFNYMHECFERVFCELKWRKENIFQM
notes: FERM domain of human SNX27; pET-28a, TEV site between His-tag and SNX27; also called hSNX27_(FERM); source: E. coli BL21 (DE3), purified (TALON or Ni-NTA, SEC, Mono Q)

Tests used:
Conditions in all cases: both partners purified
[1] = target: B9; assay: ITC; 800 μM hSNX27 FERM titrated into 20 μM GST-mSNX1(1-139) or His-SNX1FL; 25°C; 50 mM HEPES pH 7.5, 200 mM NaCl, 5% glycerol, 1 mM β-ME; single-site model
full-length mouse SNX27 [2] = target: T1, full-length mouse SNX27 (mouse, UniProt Q3UHD6 1-539); assay: ITC; 800 μM hSNX1 or hSNX2 peptide (syringe) titrated into 20 μM mSNX27FL (cell); 25°C; 50 mM HEPES pH 7.5, 200 mM NaCl, 5% glycerol, 1 mM β-ME with 1:10 peptide buffer (100 mM Tris-HCl pH 10.6); single-site model
T1 construct: sorting nexin-27 (SNX27), mouse, full length; pMCSG7 vector by ligation-independent cloning; also called mSNX27FL

[3] = target: T2, full-length human SNX27, wild type (human, UniProt Q96L92 1-541); assay: ITC; 600 μM hSNX1(75-92) peptide (syringe) titrated into 20 μM hSNX27FL wild type or single-site mutant (cell); 25°C; 50 mM HEPES pH 7.5, 200 mM NaCl, 5% glycerol, 1 mM β-ME; single-site model
T2 construct: sorting nexin-27 (SNX27), human, full length; also called hSNX27FL; hSNX27 WT

full-length mouse SNX27 [4] = target: T3, full-length mouse SNX27 (mouse, UniProt Q3UHD6 1-539); assay: ITC; 800 μM SNX1 or SNX2 peptide titrated into 20 μM mSNX27FL; 25°C; 50 mM HEPES pH 7.5, 200 mM NaCl, 5% glycerol, 1 mM β-ME with 1:10 peptide buffer (100 mM Tris-HCl pH 10.6); single-site model
T3 construct: sorting nexin-27 (SNX27), mouse; also called mSNX27FL

[5] = target: T4, full-length human SNX27, wild-type (human, UniProt Q96L92 1-541); assay: ITC; 600 μM SNX1 75-92 peptide titrated into 20 μM hSNX27 wild-type or single-site mutant; 25°C; 50 mM HEPES pH 7.5, 200 mM NaCl, 5% glycerol, 1 mM β-ME; single-site model
T4 construct: sorting nexin-27 (SNX27), human; pET-28a, TEV site between His-tag and SNX27; also called hSNX27FL; hSNX27 WT; source: E. coli BL21 (DE3), purified (TALON or Ni-NTA, SEC)

human SNX27 K496D = target: T5, human SNX27 K496D (human, UniProt Q96L92 1-541, K496D); assay: as above
T5 construct: human SNX27 single-site mutant; printed as R496D in the text and as K496D in the legend and the methods; also called hSNX27 K496D; SNX27(R496D); source: E. coli BL21 (DE3), purified (TALON or Ni-NTA, SEC)

[6] = target: T6, full-length mouse SNX1 with an amino-terminal His-tag (mouse, UniProt Q9WV80 1-522); assay: ITC; 800 μM hSNX27 FERM titrated into 20 μM GST-mSNX1(1-139) or His-SNX1FL; 25°C; 50 mM HEPES pH 7.5, 200 mM NaCl, 5% glycerol, 1 mM β-ME; single-site model
T6 construct: sorting nexin-1 (SNX1), mouse; vector pMW172Kan; also called mSNX1FL; His-SNX1FL; source: E. coli BL21 CodonPlus (DE3), purified (TALON or Ni-NTA, SEC); not shown: His-tag, N-terminal, kept

B1 was tested, and the Kd [1] was 39.1 µM.

With B2 the Kd (full-length mouse SNX27 [2]) was 13.4 ± 0.75 µM and the Kd [3] was 12.8 ± 0.47 µM.

B3 was tested, and the Kd (full-length mouse SNX27 [2]) was 33.4 ± 1.89 µM.

For B4, the Kd (full-length mouse SNX27 [4]) was 22.6 µM.

Binder B5 has a Kd (full-length mouse SNX27 [4]) of 37.8 µM.

Work on B6 yielded a Kd (full-length mouse SNX27 [4]) of 33.4 µM.

Binder B7 has a Kd (full-length mouse SNX27 [2]) of 22.6 ± 1.89 µM.

Work on B8 yielded a Kd [5] of 12.7 µM, a Kd (human SNX27 K496D) of 56.4 µM and a Kd (full-length mouse SNX27 [4]) of 13.3 µM.

Work on B9 yielded a Kd [6] of 41 µM.
